{"source": "paper PMC8960796", "about": "“Crystal structure report of the ImmR transcriptional regulator DNA-binding domain of the Bacillus subtilis ICEBs1 transposon” (Scientific Reports, 2022)", "proteins": {"B1": {"name": "ImmR transcriptional regulator DNA-binding domain (Bacillus subtilis ICEBs1) (domain or fragment, Bacillus subtilis strain 168, UniProt P96631 1-64, looked up)", "chain": "MSLGKRLKEARQKAGYTQKEAAEKLNIGNNNLSNYERDYRDPDTDTLLKLSNLYNVSTDYLLGK", "notes": "ImmR, HTH-type transcriptional regulator of ICEBs1, Bacillus subtilis strain 168, 127 residues; the final model comprises M1-K64 of molecules A and B, each with an N-terminal alanine (A0) left from the purification tag; Full-length ImmR (1-127) was set up for crystallisation; The authors suppose that a trypsin-like contaminant cut it after K64, because there is no density beyond K64 and the …"}}, "target": "the molecule itself", "assay": "crystal structure; crystals from 18% (w/v) PEG 3350, 10 mM magnesium chloride, 50 mM Tris-HCl pH 8.5; space group I2, two protomers per a.u. related by a dyad; data at 100 K, 2.10 Å", "data": [{"protein": "B1", "values": [{"measurement": "binding result", "value": "binds"}]}]}
